Data from publication PMC12820725, “Ribosomal protein control of hematopoietic stem cell transformation through regulation of metabolism”.
Where two headings read alike, the source gives them in different places.

B1: EBER1 (structured_RNA)
RNA: GGUCCGUCCCGGGUACAAGUCCCGGGUGGUGA
B2: Alox12 BS2 (structured_RNA)
RNA: AUUUCCUCACCAUGUGUGUUUUCACAUGCACU
B3: Alox12 NBS (ssRNA)
RNA: ACCAGAGUGAUGAUAUUGUGAGGGGAGACCCA
B4: EBER2 (ssRNA)
RNA: GCUCAGUGCGGUGCUACCGACCCGAGGUCAAG
B5: Alox12 BS1 (structured_RNA)
RNA: AUCCUGCUGGAUGGAAUUCCAGCUAAUGUGAU

Experiments:
GST-Rpl22 [1] = target: GST-Rpl22 (UniProt P67984 1-128); assay: EMSA; 5 mM MgCl2, E. coli tRNA competitor; 37.5 mM HEPES pH 7.9, 75 mM NaCl, 5 mM MgCl2, 0.1 mg/ml BSA, 8% glycerol, 1 ug E. coli tRNA, 5 nM 32P-RNA; temperature not stated; conditions: protein: recombinant; tags: GST; label: 5'-32P
GST-Rpl22 [2] = target: GST-Rpl22 (UniProt P67984 1-128); assay: as above

Row | Binder | binding result (GST-Rpl22 [1]) | binding result (GST-Rpl22 [2])
1 | B1 | binds | 
2 | B2 |  | binds
3 | B3 |  | no binding
4 | B4 | no binding | 
5 | B5 |  | no binding
